# Measurements from IntAct's records for PubMed 25313826.
# B1: Chromatin assembly factor 1 subunit A (Schizosaccharomyces pombe (strain ATCC 38366 / 972)), Q1MTN9 (parent)
# chain: MNSESVDSDVAASTSNKGNELCSSSTDITSLSVSSPNESVIHSSHSASEADEYVCKLSYEGNRKKRIYNGSAEAGKEKKLQKQRAQEERIRQKEAERLKREKERQQREQEKKLREQEKIAAKKMKELEKLEKERIRLQEQQRRKEERDQKLREKEEAQRLRQEQILNKERQQLKLNNFFTKGVEKRIAPNENFVADKTDELNEFEKEFRPFFIKHQMSLSKYPSPNESDSFLDEVLSTSKSYPLKLNDIFTPSDAVSSANSLGVSNRNSENEVRQLMSAYQDPSVSKPQEILSCLSQIPIKFIFFYQDVRPPYFGSYTKTHSHGSNVLLNPWLEDEDIDYTYDSEAEWVADEEDDGEDLESEDEEVDNSDDIVEDGDNAFVDDEDDDKDSVNASNTHRSSGPLEVIVEGPVWDSKFLPDFNCLSLIEPISSFSASTYLQIDPKEDLWASQDTAPASSGMTIGPTSSLSDDLQVRFPSEDIPKFIEYVRNSHDNKVFLIENLRHMFPYVTKNIISETLGKVAVRKGKSVSDGWIIKENFASLLSS
# partner: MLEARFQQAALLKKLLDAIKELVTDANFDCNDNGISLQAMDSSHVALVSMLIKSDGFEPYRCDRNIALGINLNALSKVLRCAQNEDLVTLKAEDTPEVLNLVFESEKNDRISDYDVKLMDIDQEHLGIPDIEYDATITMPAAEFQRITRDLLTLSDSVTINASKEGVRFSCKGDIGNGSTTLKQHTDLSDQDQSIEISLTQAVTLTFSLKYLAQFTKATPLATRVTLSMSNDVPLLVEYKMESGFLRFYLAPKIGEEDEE
# Variants of: B1
# Conditions: with pcna_schpo pcn1, Q03392
row,Variant,effect of a mutation on the interaction
1,Q172A;L175A;F178A;F179A,disrupting interaction strength
